By IC50 is commonly meant the concentration that gives 50% inhibition.

Test [1] addresses T1, Recombinant Human PD-L1-TVMV-His (human, UniProt Q9NZQ7 19-239).
T1 construct: expressed in HEK293T cells; also called PD-L1-His; hPD-L1(19-239)-TVMV-His
In words: HTRF vs PD-1-Ig; B = IC50 0.01-0.099 µM. Here is the method: (§1) Homogenous Time-Resolved Fluorescence (HTRF) Assays of Binding of Soluble PD-1 to Soluble PD-L1. Soluble PD-1 and soluble PD-L1 refers to proteins with carboxyl-end truncations that remove the transmembrane-spanning regions and are fused to heterologous sequences, specifically the Fc portion of the human immunoglobuling G sequence (Ig) or the hexahistidine epitope tag (His). All binding studies were performed in an HTRF assay buffer consisting of dPBS supplemented with 0.1% (w/v) bovine serum albumin and 0.05% (v/v) Tween-20. For the PD-1-Ig/PD-L1-His binding assay, inhibitors were pre-incubated with PD-L1-His (10 nM final) for 15 m in 4 μl of assay buffer, followed by addition of PD-1-Ig (20 nM final) in 1 μl of assay buffer and further incubation for 15 m. PD-L1 fusion proteins from either human, cynomologous macaques, mouse, or other species were used. HTRF detection was achieved using europium crypate-labeled anti-Ig monoclonal antibody (1 nM final) and allophycocyanin (APC) labeled anti-His monoclonal antibody (20 nM final). Antibodies were diluted in HTRF detection buffer and 5 μl was dispensed on top of binding reaction. The reaction was allowed to equilibrate for 30 minutes and signal (665 nm/620 nm ratio) was obtained using an EnVision fluorometer. Additional binding assays were established between PD-I-Ig/PD-L2-His (20 and 5 nM, respectively), CD80-His/PD-L1-Ig (100 and 10 nM, respectively) and CD80-His/CTLA4-Ig (10 and 5 nM, respectively). Binding/competition studies between biotinylated Compound No. 71 and human PD-L1-His were performed as follows. Macrocyclic peptide inhibitors were pre-incubated with PD-L1-His (10 nM final) for 60 minutes in 4 μl of assay buffer followed by addition of biotinylated Compound No. 71 (0.5 nM final) in 1 μl of assay buffer. Binding was allowed to equilibrate for 30 minutes followed by addition of europium crypated labeled Streptavidin (2.5 pM final) and APC-labeled anti-His (20 nM final) in 5 μl of HTRF buffer. The reaction was allowed to equilibrate for 30 m and signal (665 nm/620 nm ratio) was obtained using an EnVision fluorometer.
A general note: In TR-FRET formats the signal depends on donor and acceptor labels being close together.

Test [2] deals with T1, Recombinant Human PD-L1-TVMV-His. Nature of the test: HTRF vs PD-1-Ig; C = IC50 0.0003-0.0099 µM. Here is the method:
as §1

Starred links: 1 amine or outer side, 2 acyl side, 3 side chain; linkers in the order of their positions; H or OH if unused. Positions of bridges follow the written chain, without caps; N, C: chain ends. Non-standard residues stand in square brackets, D forms with d. Groups on a side chain read outwards from the residue. Primed or numbered codes have the meaning given here. No end group written: not given here. *: point of attachment. Pra′ = propargylglycine (built in as LPH), clicked to a 1-substituted triazol-4-yl-alanine, O=C([C@H](Cc1cn([*:3])nn1)N[*:1])[*:2]; X1 = (S)‑3‑carboxy‑3‑(15-carboxypentadecanoylamino)propyl, O=C(O)CCCCCCCCCCCCCCC(=O)N[C@@H](CC*)C(=O)O; Phe(4-OMe) = p-methoxyphenylalanine (O-methyl-L-tyrosine), COc1ccc(C[C@H](N[*:1])C(=O)[*:2])cc1; Pra″ = its azide, alkyne or alkene has reacted where a group follows in round brackets; Pra(4) = propargylglycine, clicked with an azide to give a triazolylalanine residue; X2 = (S)‑3‑carboxy‑3‑palmitamidopropyl, CCCCCCCCCCCCCCCC(=O)N[C@@H](CC*)C(=O)O; Pra(3) = propargylglycine, clicked to an azide to give a triazolyl-alanine; triazole = 1,2,3-triazole formed by click of the Pra alkyne with the azide; Trp(1-CH2CO) = O=C([C@H](Cc1cn(CC(=O)[*:3])c2ccccc12)N[*:1])[*:2]; Phe(3,4,5-F3) = N[C@@H](Cc1cc(F)c(F)c(F)c1)C(=O)O; C18 diacid = O=C(O)CCCCCCCCCCCCCCCCC(=O)*; C16 diacid = O=C(O)CCCCCCCCCCCCCCC(=O)*; γGlu = O=C(O)[C@H](CCC(=O)[*:2])N[*:1]; Aha = [N-]=[N+]=NCC[C@H](N)C(=O)O; Hyp = O=C(O)[C@@H]1C[C@@H](O)CN1; NMeF = CN[C@@H](Cc1ccccc1)C(=O)O; dHyp = O=C(O)[C@H]1C[C@H](O)CN1; NMeNle = CCCC[C@H](NC)C(=O)O; triazole″ = not defined here; Bzt = benzothienylalanine; Pip = O=C(O)[C@@H]1CCCCN1; NMeA = CN[C@@H](C)C(=O)O; Orn = NCCC[C@H](N)C(=O)O; PEG7′ = not defined here; Pra = C#CC[C@H](N)C(=O)O; Dab = NCC[C@H](N)C(=O)O; Dap = NC[C@H](N)C(=O)O

T1 sequence (Q9NZQ7 other isoform, or with tags, fused parts or gaps limits assumed): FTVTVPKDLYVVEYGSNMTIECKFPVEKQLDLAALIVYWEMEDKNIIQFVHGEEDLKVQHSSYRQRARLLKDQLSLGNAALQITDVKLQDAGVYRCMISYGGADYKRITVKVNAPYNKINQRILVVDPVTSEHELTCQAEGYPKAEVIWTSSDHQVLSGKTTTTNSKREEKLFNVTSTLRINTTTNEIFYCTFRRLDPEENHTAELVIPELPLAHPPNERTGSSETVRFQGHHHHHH

Take {CH2CO}-[Phe(3,4,5-F3)][NMeF][NMeNle][dP]DV[NMeF][Orn][dP]WYLCG[Pra′]([triazole-X1]) (thioether N-13) [Example 14073]: the IC50 in test [1] is 10 to 99 nM.

B1: INT-130AG (peptide)
peptide: {CH2CO}-Y[NMeA]NP[Dap]L[Hyp]W[Dab][Trp(1-CH2CO)][NMeNle][NMeNle]EC[Pra]-OH
modifications: thioether N-14
SMILES: C#CC[C@H](NC(=O)[C@@H]1CSCC(=O)N[C@@H](Cc2ccc(O)cc2)C(=O)N(C)[C@@H](C)C(=O)N[C@@H](CC(N)=O)C(=O)N2CCC[C@H]2C(=O)N[C@@H](CN)C(=O)N[C@@H](CC(C)C)C(=O)N2C[C@H](O)C[C@H]2C(=O)N[C@@H](Cc2c[nH]c3ccccc23)C(=O)N[C@@H](CCN)C(=O)N[C@@H](Cc2cn(CC(=O)O)c3ccccc23)C(=O)N(C)[C@@H](CCCC)C(=O)N(C)[C@@H](CCCC)C(=O)N[C@@H](CCC(=O)O)C(=O)N1)C(=O)O
As for B1, in test [2], the IC50 fell in the range of 0.3 to 9.9 nM.
On the same count and under the same terms, as for {CH2CO}-Y[Pip]NP[Dap]L[Hyp]W[Dab][Trp(1-CH2CO)][NMeNle][NMeNle]LCG[Pra] (thioether N-14 (inferred)) [INT-130AI], the figure is 0.3 to 9.9 nM; as for {CH2CO}-Y[NMeA]NP[Dap]L[Hyp]W[Dab][Trp(1-CH2CO)][NMeNle][NMeNle]LCG[Dap]([γGlu-C18 diacid]) (thioether N-14 (inferred)) [Example 13153], 0.3 to 9.9 nM.

B2: INT-130AF (peptide)
peptide: {CH2CO}-Y[NMeA]NP[Dap]L[Hyp]W[Dab][Trp(1-CH2CO)][NMeNle][NMeNle]LC[Pra]-OH
modifications: thioether N-14
SMILES: C#CC[C@H](NC(=O)[C@@H]1CSCC(=O)N[C@@H](Cc2ccc(O)cc2)C(=O)N(C)[C@@H](C)C(=O)N[C@@H](CC(N)=O)C(=O)N2CCC[C@H]2C(=O)N[C@@H](CN)C(=O)N[C@@H](CC(C)C)C(=O)N2C[C@H](O)C[C@H]2C(=O)N[C@@H](Cc2c[nH]c3ccccc23)C(=O)N[C@@H](CCN)C(=O)N[C@@H](Cc2cn(CC(=O)O)c3ccccc23)C(=O)N(C)[C@@H](CCCC)C(=O)N(C)[C@@H](CCCC)C(=O)N[C@@H](CC(C)C)C(=O)N1)C(=O)O
For B2, the half-inhibitory concentration (IC50) in test [2] fell in the range of 0.3 to 9.9 nM.
For the molecule {CH2CO}-Y[NMeA]DPHQ[Hyp]WSW[NMeNle][NMeNle]ECG[Pra(3)]([triazole″-X2])G (thioether N-14; reading uncertain) [Example 14062], the IC50 in test [1] was in the range of 10 to 99 nM.

B3: Example 14123 (peptide)
peptide: FXDPXLPWXWXXLCGE
modifications: ClAc-Tyr(4-F)-Pip-Asp-Pro-Dap-Leu-Hyp-Trp-Dab-Trp'-mNle-mNle-Leu-Cys-Gly-((S)-4-(Fmoc-amino)-5-(tert-butoxy)-5-oxopentanoic acid)-[Modified resin 14A], deprotected; Glu joined through its gamma-carboxyl; 14A = ethylenediamine amide of the gamma-carboxyl of Glu N-(17-carboxyheptadecanoyl); cyclised ClAc-Cys
Take B3: the 50% inhibitory concentration (IC50) in test [2] was in the range of 0.3 to 9.9 nM.
Still for that read-out and setting: as for {CH2CO}-Y[Pip]NP[DapMe]L[Hyp]W[Dab][Trp(1-CH2CO)][NMeNle][NMeNle]ECG[Pra] (thioether N-14 (inferred)) [INT-130AL], the figure is 0.3 to 9.9 nM.
As for {CH2CO}-Y[NMeA]DPHK[Hyp]WKW[NMeNle][NMeNle]ECG[Pra(3)]([triazole″-2,5,8,11‑tetraoxatridecyl])G (thioether N-14; reading uncertain) [Example 14063], in test [1], the IC50 fell in the range of 10 to 99 nM.
For the molecule {CH2CO}-Y[Pip]NP[DapMe]L[Hyp]W[Dab][Trp(1-CH2CO)][NMeNle][NMeNle]LCG[Pra] (thioether N-14 (inferred)) [INT-130AK], the IC50 in test [2] lay within 0.3 to 9.9 nM.
Turning to {CH2CO}-Y[NMeA]NP[Dap]L[Hyp]WS[Trp(1-CH2CO)][NMeNle][NMeNle]LCG[Pra(4)]([triazole-Dab-C16 diacid]) (thioether N-14) [Example 14083], the IC50 in test [1] was 10 to 99 nM.
As for {CH2CO}-[Phe(3,4,5-F3)][NMeF][NMeNle][dHyp]DV[NMeF]D[dP]WYLCG[Pra′]([triazole-X1]) (thioether N-13) [Example 14074], in test [1], the half-inhibitory concentration (IC50) was in the range of 10 to 99 nM.
As to {CH2CO}-Y[NMeA]NP[Dap]L[Hyp]WS[Bzt][NMeNle][NMeNle]RCG[Pra] (thioether N-14) [INT-1300A], the IC50 in test [2] lay in the range of 0.3 to 9.9 nM.
Same read-out and setting: for {CH2CO}-[Phe(4-OMe)][Pip]NPHQ[Hyp]W[Dab][Trp(1-CH2CO)][NMeNle][NMeNle]LCG[Dap]([γGlu-C18 diacid]) (thioether N-14) [Example 13154] the value was 0.3 to 9.9 nM; for {CH2CO}-Y[NMeA]NP[Dap]L[Hyp]W[Dab][Trp(1-CH2CO)][NMeNle][NMeNle]DC[Pra]-OH (thioether N-14 (inferred)) [INT-130AH], 0.3 to 9.9 nM; for {CH2CO}-Y[NMeA]NP[Dap]L[Hyp]WS[Bzt][NMeNle][NMeNle]RCG[Aha] (thioether N-14) [INT-1300B], 0.3 to 9.9 nM.
Turning to {CH2CO}-Y[NMeA]NP[Dap]L[Hyp]W[Dab][Trp(1-CH2CO)][NMeNle][NMeNle]LCGGG[Pra″]([triazole-PEG7′-γGlu-C18 diacid]) (thioether N-14 (inferred)) [Example 13124], the IC50 in test [1] lay within 10 to 99 nM.
Regarding {CH2CO}-Y[NMeA]NP[Dap]L[Hyp]WS[Trp(1-CH2CO)][NMeNle][NMeNle]LCG[Pra′]([triazole-X2]) (thioether N-14) [Example 14080], the 50% inhibitory concentration (IC50) in test [1] is 10 to 99 nM.
On the same count and under the same terms, for {CH2CO}-Y[NMeA]DPHK[Hyp]WK[Trp(1-CH2CO)][NMeNle][NMeNle]ECG[Pra′]([triazole-X1]) (thioether N-14) [Example 14075] the value was 10 to 99 nM.
For {CH2CO}-Y[Pip]NP[Dap]L[Hyp]W[Dab][Trp(1-CH2CO)][NMeNle][NMeNle]LCG[Dap]([γGlu-C18 diacid]) (thioether N-14 (inferred)) [Example 13152], the IC50 in test [2] lay within 0.3 to 9.9 nM.
As to {CH2CO}-Y[NMeA]DPHK[Hyp]WK[Trp(1-CH2CO)][NMeNle][NMeNle]ECG[Pra′]([triazole-X2]) (thioether N-14) [Example 14079], the half-inhibitory concentration (IC50) in test [1] was 10 to 99 nM.
Still for that read-out and setting: as for {CH2CO}-Y[NMeA]DPHQ[Hyp]WSW[NMeNle][NMeNle]ECG[Pra′]([triazole-X1]) (thioether N-14) [Example 14068], the figure is 10 to 99 nM.

B4: INT-130AB (peptide)
peptide: {CH2CO}-Y[NMeA]NP[Dap]L[Hyp]W[Dab][Trp(1-CH2CO)][NMeNle][NMeNle]LCGGG[Pra]-OH
modifications: thioether N-14
SMILES: C#CC[C@H](NC(=O)CNC(=O)CNC(=O)CNC(=O)[C@@H]1CSCC(=O)N[C@@H](Cc2ccc(O)cc2)C(=O)N(C)[C@@H](C)C(=O)N[C@@H](CC(N)=O)C(=O)N2CCC[C@H]2C(=O)N[C@@H](CN)C(=O)N[C@@H](CC(C)C)C(=O)N2C[C@H](O)C[C@H]2C(=O)N[C@@H](Cc2c[nH]c3ccccc23)C(=O)N[C@@H](CCN)C(=O)N[C@@H](Cc2cn(CC(=O)O)c3ccccc23)C(=O)N(C)[C@@H](CCCC)C(=O)N(C)[C@@H](CCCC)C(=O)N[C@@H](CC(C)C)C(=O)N1)C(=O)O
notes: also called Intermediate 130AB
On to B4, for which, in test [1], the IC50 fell in the range of 10 to 99 nM.
For the molecule {CH2CO}-Y[Pip]NP[Dap]L[Hyp]W[Dab][Trp(1-CH2CO)][NMeNle][NMeNle]ECG[Pra] (thioether N-14 (inferred)) [INT-130AJ], the IC50 in test [2] is 0.3 to 9.9 nM.
For {CH2CO}-Y[NMeA]DPHQ[Hyp]WSW[NMeNle][NMeNle]ECG[Pra′]([triazole-X1])G (thioether N-14) [Example 14069], the half-inhibitory concentration (IC50) in test [1] was in the range of 10 to 99 nM.

These data come from patent US20160137696A1 (Bristol-Myers Squibb, published 2016).
